In patent US6462178B1, “G protein” (Yong Hou Wong, priority 1999, dated 2002) one finds IP formation, enhancement of the agonist response by coexpressed 16z44, IP formation (PLC stimulation), % Res. and EC50 of 2-iodomelatonin for IP formation data, which are given here for one molecule.

The target of assay [1] is formyl peptide (fMLP) receptor.
The target of assay [2] is opioid receptor-like (ORL1) receptor.
Assay [3] deals with melatonin Mel1c receptor.
The target in a further assay is T1, melatonin Mel1b receptor.
T1 sequence (P49286 whole entry, species assumed, looked up): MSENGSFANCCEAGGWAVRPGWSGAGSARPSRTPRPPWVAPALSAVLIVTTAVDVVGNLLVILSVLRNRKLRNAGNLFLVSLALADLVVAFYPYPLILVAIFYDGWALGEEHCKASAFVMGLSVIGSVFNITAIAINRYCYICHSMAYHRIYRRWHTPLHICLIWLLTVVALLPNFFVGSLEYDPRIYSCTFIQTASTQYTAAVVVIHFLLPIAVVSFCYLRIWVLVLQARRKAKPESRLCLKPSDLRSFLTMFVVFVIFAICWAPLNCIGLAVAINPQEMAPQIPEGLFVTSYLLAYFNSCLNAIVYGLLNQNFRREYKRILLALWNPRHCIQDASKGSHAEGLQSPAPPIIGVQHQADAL

For assay [4], the target named is melatonin Mel1c receptor. This is another data set of the same source.

Chain of complement C5a receptor (P21730 whole entry): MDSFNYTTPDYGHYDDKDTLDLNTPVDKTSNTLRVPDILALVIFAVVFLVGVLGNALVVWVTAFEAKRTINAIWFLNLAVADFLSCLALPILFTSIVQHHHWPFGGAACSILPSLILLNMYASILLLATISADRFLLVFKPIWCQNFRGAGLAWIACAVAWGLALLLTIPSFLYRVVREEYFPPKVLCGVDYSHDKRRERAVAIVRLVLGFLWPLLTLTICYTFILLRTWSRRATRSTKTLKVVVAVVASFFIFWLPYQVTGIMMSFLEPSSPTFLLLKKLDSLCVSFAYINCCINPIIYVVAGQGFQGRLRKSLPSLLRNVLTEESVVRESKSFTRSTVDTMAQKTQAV
Chain of dopamine D2 receptor (P14416 whole entry): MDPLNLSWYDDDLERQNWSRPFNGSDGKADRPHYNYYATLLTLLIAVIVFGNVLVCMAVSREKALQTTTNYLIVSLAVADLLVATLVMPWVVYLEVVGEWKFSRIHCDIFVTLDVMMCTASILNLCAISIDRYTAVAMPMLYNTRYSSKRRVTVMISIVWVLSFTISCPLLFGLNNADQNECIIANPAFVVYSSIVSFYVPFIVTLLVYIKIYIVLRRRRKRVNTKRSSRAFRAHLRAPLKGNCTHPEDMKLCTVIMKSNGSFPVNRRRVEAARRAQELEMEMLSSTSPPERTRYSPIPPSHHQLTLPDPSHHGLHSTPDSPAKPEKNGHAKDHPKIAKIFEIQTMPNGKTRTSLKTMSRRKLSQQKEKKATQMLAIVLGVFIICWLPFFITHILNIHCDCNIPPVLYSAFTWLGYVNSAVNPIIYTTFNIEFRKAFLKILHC

B1: 16z44 chimera (protein)
chain: MARSLTWRCCPWCLTEDEKAAARVDQEINRILLEQKKQDRGELKLLLLGPGESGKSTFIKQMRIIHGAGYSEEERKGFRPLVYQNIFVSMRAMIEAMERLQIPFSRPESKHHASLVMSQDPYKVTTFEKRYAAAMQWLWRDAGIRACYERRREFHLLDSAVYYLSHLERITEEGYVPTAQDVLRSRMPTTGINEYCFSVQKTNLRIVDVGGQKSERKKWIHCFENVIALIYLASLSEYDQCLEENNQENRMKESLALFGTILELPWFKSTSVILFLNKTDILEEKIPTSHLATYFPSFQGPKQDAEAAKRFILDMYTRMYTGCVDGPEGSNRNKETKEIYSHFTCATDTSNIQFVFDAVTDVIIQNNLKYIGLC
Regarding B1, the IP formation, enhancement of the agonist response by coexpressed 16z44 stood at 57% with bombesin receptor, 43% with 5HT1c receptor and 34% in the assay with muscarinic m1 receptor. Besides, the IP formation (PLC stimulation), % Res. was found to be 307 % Res with β2-adrenergic receptor; 428 % Res in assay [1]; 457 % Res with complement C5a receptor; 297 % Res in the assay with α2-adrenergic receptor; 380 % Res in assay [2]; 257 % Res in the assay with κ-opioid receptor. Besides, the IP formation (PLC stimulation), % Res. with δ-opioid receptor was found to be 548 % Res; with vasopressin V2 receptor it was 321 % Res; in the assay with µ-opioid receptor, 269 % Res; with melatonin Mel1c receptor [3], 307 % Res; with adenosine A1 receptor it was 188 % Res; with dopamine D2 receptor it was 302 % Res. For the same molecule, the IP formation (PLC stimulation), % Res. with dopamine D1 receptor is 287 % Res; in the assay with melatonin Mel1b receptor it was 177 % Res; with melatonin Mel1a receptor, 171 % Res. Further, the EC50 of 2-iodomelatonin for IP formation with melatonin Mel1c receptor [4] was 0.4 nM.
